Data on nine compounds can be found in paper PMC3478282, “Probing the Putative Active Site of YjdL: An Unusual Proton-Coupled Oligopeptide Transporter from E. coli” (PLoS ONE, 2012).

Positions count from the first letter of the chain named. Where two headings read alike, the source gives them in different places. Residues, ends and D or L forms follow the SMILES beside them. Bounds are passed on as bounds.

Some targets named below: YjdL Tyr113Phe (E. coli) (UniProt P39276); YjdL Tyr21Phe (E. coli) (UniProt P39276); YjdL Tyr58Phe (E. coli) (UniProt P39276); YjdL-Trp278Phe (E. coli) (UniProt P39276).
A further test deals with T1, WT-YjdL (Escherichia coli, UniProt P39276).
T1 construct: expressed in transfected cells; host or cells: E. coli BL21(DE3)pLysS, pTTQ18-yjdL, IPTG-induced
T1 sequence (P39276 1-485): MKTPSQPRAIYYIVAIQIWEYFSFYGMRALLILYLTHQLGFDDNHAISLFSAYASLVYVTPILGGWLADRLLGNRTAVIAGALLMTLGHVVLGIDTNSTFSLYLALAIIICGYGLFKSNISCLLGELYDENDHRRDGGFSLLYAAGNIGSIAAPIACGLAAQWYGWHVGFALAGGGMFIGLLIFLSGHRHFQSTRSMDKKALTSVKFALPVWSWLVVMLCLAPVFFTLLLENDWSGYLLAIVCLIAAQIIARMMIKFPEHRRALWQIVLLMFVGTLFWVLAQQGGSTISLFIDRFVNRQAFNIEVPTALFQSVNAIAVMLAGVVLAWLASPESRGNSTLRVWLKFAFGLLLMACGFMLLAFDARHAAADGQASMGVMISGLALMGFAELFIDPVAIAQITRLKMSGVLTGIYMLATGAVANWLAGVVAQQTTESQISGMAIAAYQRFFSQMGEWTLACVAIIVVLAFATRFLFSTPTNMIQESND
The test can be described thus: cell-based. To be noted: for IC50: IC50 (inhibition of β-Ala-Lys(AMCA) uptake), WT-YjdL a. It is filed as cell-based, E. coli. How it is done:
(§1) Plasmids were transformed into E. coli BL21(DE3)pLysS cells by heat shock and transformants were selected on agar plates containing 100 µg/mL ampicillin and 34 µg/mL chloramphenicol. Single transformants were inoculated into 2 mL LB-media with antibiotics as above and grown overnight. The cultures were diluted 1∶50 in 5 mL LB-media with antibiotics as above, and at an OD600 of 0.5–0.8 protein expression was induced by the addition of 1 mM isopropyl β-D-1-thiogalactopyranoside (IPTG). […]
(§2) Uptake assays were performed as previously described, [20]. In a final assay volume of 100 µL; 0.2 mM β-Ala-Lys-N-7-amino-4-methylcoumarin-3-acetic acid (β-Ala-Lys(AMCA), Biotrend) (10 µL) and various concentrations of ligands (purchased from Bachem or Sigma-Aldrich) or uptake buffer (50 µL) were incubated with bacterial cell suspension (OD600 = 10, 40 µL) at 37°C. After 5 min, the uptake was stopped by addition of 500 µL ice-cold uptake buffer followed by immediate centrifugation and washing twice in ice-cold uptake buffer. Finally the cell pellet was resuspended in 100 µL uptake buffer, and the uptake was quantified by fluorescence measurements (excitation at 340 nm and emission at 460 nm) on a Safire 2 fluorimeter. Non-specific uptake was measured as described above on IPTG-induced E. coli BL21(DE3)pLysS cells harboring the empty pTTQ18 vector. All uptake assay experiments were reproduced at least three times independently and data analyses were performed using GraphPad Prism ver. 5.

The target in a further test is T2, YjdL Tyr25Phe (Escherichia coli, UniProt P39276, Y25F).
T2 construct: expressed in transfected cells; host or cells: E. coli BL21(DE3)pLysS, pTTQ18-yjdL mutant (QuikChange)
T2 sequence (P39276 1-485 Y25F): T1 sequence (P39276 1-485) with Y25F
The test can be described thus: β-Ala-Lys(AMCA) uptake and inhibition assay, YjdL Tyr25Phe. It counts as cell-based, E. coli. To be noted: 0.2 mM β-Ala-Lys(AMCA), 5 min incubation, pH 6.5; ±SEM, n≥3. How it is done:
(§3) Plasmids were transformed into E. coli BL21(DE3)pLysS cells by heat shock and transformants were selected on agar plates containing 100 µg/mL ampicillin and 34 µg/mL chloramphenicol. Single transformants were inoculated into 2 mL LB-media with antibiotics as above and grown overnight. The cultures were diluted 1∶50 in 5 mL LB-media with antibiotics as above, and at an OD600 of 0.5–0.8 protein expression was induced by the addition of 1 mM isopropyl β-D-1-thiogalactopyranoside (IPTG). The cells were harvested after three hours of induction by centrifugation and resuspended in uptake buffer (50 mM MES pH 6.5, 140 mM NaCl, 5.4 mM KCl, 1.8 mM CaCl2, 0.8 mM MgSO4, and 5 mM glucose).
as §2

A further test addresses T3, YjdL Ala281Phe (Escherichia coli, UniProt P39276, A281F).
T3 construct: host or cells: E. coli BL21(DE3)pLysS
T3 sequence (P39276 1-485 A281F): T1 sequence (P39276 1-485) with A281F
As to the kind of experiment: β-Ala-Lys(AMCA) uptake and inhibition assay, YjdL Ala281Phe. It is filed as cell-based, E. coli. To be noted: for IC50: 0.2 mM β-Ala-Lys(AMCA), 5 min incubation, pH 6.5, ±SEM, n≥3. How it is done: as §3, §2

The target of test [1] is YjdL Tyr25Phe (E. coli) (UniProt P39276).
In test [2] the target is YjdL from E. coli, wild type (E. coli) (UniProt P39276).
The target in test [3] is YjdL-Ala281Phe (E. coli) (UniProt P39276).
Test [4] concerns the target YjdL from E. coli, wild type (E. coli) (UniProt P39276). The source holds these as a separate data set.
The target in test [5] is YjdL Tyr25Phe (E. coli) (UniProt P39276). The source holds these as a separate data set.
Test [6] addresses YjdL from E. coli, wild type (E. coli) (UniProt P39276). This is another data set of the same source.
Test [7] has as its target YjdL-Ala281Phe (E. coli) (UniProt P39276). The source holds these as a separate data set.
A further test deals with T4, WT-YdgR (Escherichia coli, UniProt P77304).
T4 construct: expressed in transfected cells; host or cells: E. coli BL21(DE3)pLysS, pTTQ18-ydgR, IPTG-induced
T4 sequence (P77304 1-500): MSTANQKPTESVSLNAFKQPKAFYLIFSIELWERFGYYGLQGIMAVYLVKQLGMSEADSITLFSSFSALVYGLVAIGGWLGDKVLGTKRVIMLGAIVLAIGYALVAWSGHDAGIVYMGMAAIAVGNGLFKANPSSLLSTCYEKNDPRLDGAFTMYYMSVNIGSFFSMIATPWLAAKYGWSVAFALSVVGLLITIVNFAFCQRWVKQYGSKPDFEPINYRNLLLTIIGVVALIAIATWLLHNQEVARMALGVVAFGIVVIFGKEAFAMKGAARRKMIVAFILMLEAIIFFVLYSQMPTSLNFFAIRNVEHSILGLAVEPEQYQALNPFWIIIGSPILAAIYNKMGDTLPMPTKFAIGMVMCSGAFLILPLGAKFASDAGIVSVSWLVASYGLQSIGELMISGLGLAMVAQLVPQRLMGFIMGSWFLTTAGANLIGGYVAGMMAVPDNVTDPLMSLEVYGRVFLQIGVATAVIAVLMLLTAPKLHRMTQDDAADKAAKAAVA
As to the kind of experiment: cell-based. It counts as cell-based, E. coli. Particulars: 25 mM Tris-HCl, 50 mM MOPS pH 7.4, 0.2 mM β-Ala-Lys(AMCA), 5 min. How it is done: as §1, §2

In the case of `CSCC[C@H](N)C(=O)N[C@@H](CCCCN)C(=O)O` [Met-Lys] (H-Met-Lys-OH), the “increase of IC50 compared to the Ala-Lys value, WT-YjdL” value (“increase of IC50” for short) on WT-YjdL is recorded as “approximately 2 fold”. The concentration for half-maximal inhibition (IC50) against WT-YjdL was 530 ± 30 µM; at YjdL Tyr25Phe, 610 ± 20 µM; against YjdL Ala281Phe it was 170 ± 10 µM.

For the compound `NCCCC[C@H](NC(=O)[C@@H](N)Cc1c[nH]c2ccccc12)C(=O)O` [Trp-Lys] (H-Trp-Lys-OH), on WT-YjdL, the “increase of IC50” value is recorded as “approximately 2 fold”. In addition, the values for the half-inhibitory concentration (IC50) at WT-YjdL, on YjdL Tyr25Phe and at YjdL Ala281Phe were 600 ± 70 µM, 580 ± 60 µM and 90 ± 10 µM, respectively.

With `NCCCC[C@H](NC(=O)[C@@H](N)Cc1ccc(O)cc1)C(=O)O` [Tyr-Lys] (H-Tyr-Lys-OH), on WT-YjdL, the “increase of IC50” value was “approximately 2 fold” and half-maximal inhibition (IC50) required 550 ± 40 µM. The same compound came in with an IC50 at YjdL Tyr25Phe of 670 ± 80 µM. At YjdL Ala281Phe, the “decrease of IC50 compared to Ala-Lys, Ala281Phe” value is “approximately 10 fold” and the IC50 is 30 µM.

For the compound Ala-Gln (peptide), the IC50 of inhibition of β-Ala-Lys(AMCA) uptake into E. coli cells (0.2 mM substrate, 5 min, pH 6.5) with YjdL Tyr113Phe (E. coli) was 1.1 mM; in the test with YjdL Tyr21Phe (E. coli) it was 1.1 mM; with YjdL Tyr25Phe (E. coli) [1] it was 36.1 mM; in test [2] it was 0.6 mM; in the test with YjdL-Ala281Phe (E. coli) [3], 21.7 mM; in the test with YjdL-Trp278Phe (E. coli), 0.9 mM. The IC50 of inhibition of β-Ala-Lys(AMCA) uptake into E. coli cells (0.5 mM substrate, 15 min, pH 6.5) with YjdL Tyr58Phe (E. coli) was 2.5 mM; in [2] it was 1.9 mM. Moreover, in test [4], the β-Ala-Lys(AMCA) uptake (0.5 mM) left with 50 mM competitor, E. coli cells, pH 6.5 was under 10%.

With Met-Lys (peptide), the IC50 of inhibition of β-Ala-Lys(AMCA) uptake into E. coli cells (0.2 mM substrate, 5 min, pH 6.5) came out at 0.61 mM in the test with YjdL Tyr25Phe (E. coli) [5], 0.53 mM in test [6] and 0.17 mM in the test with YjdL-Ala281Phe (E. coli) [7].

Regarding Tris, the “inhibition of β-Ala-Lys(AMCA) uptake, WT-YdgR” value at WT-YdgR is recorded as “no significant inhibition”. For the same compound, at WT-YjdL (25 mM Tris-HCl, 50 mM MOPS pH 7.4, 0.2 mM β-Ala-Lys(AMCA), 5 min), the “inhibition of β-Ala-Lys(AMCA) uptake, WT-YjdL” value is “weak”.

As to Trp-Lys (peptide), the IC50 of inhibition of β-Ala-Lys(AMCA) uptake into E. coli cells (0.2 mM substrate, 5 min, pH 6.5) came out at 0.58 mM with YjdL Tyr25Phe (E. coli) [5], 0.6 mM in test [6] and 0.09 mM with YjdL-Ala281Phe (E. coli) [7].

Tyr-Ala (peptide): the IC50 of inhibition of β-Ala-Lys(AMCA) uptake into E. coli cells (0.2 mM substrate, 5 min, pH 6.5) in the test with YjdL Tyr113Phe (E. coli) was 1.3 mM; in the test with YjdL Tyr21Phe (E. coli) it was 4.7 mM; in the test with YjdL Tyr25Phe (E. coli) [1], 33.7 mM; in [2], 2.4 mM; with YjdL-Ala281Phe (E. coli) [3], 33.2 mM; in the test with YjdL-Trp278Phe (E. coli), 2.8 mM. Further, the results for the IC50 of inhibition of β-Ala-Lys(AMCA) uptake into E. coli cells (0.5 mM substrate, 15 min, pH 6.5) (in the test with YjdL Tyr58Phe (E. coli); in test [2]) were 24.1 mM and 2.4 mM, respectively. The β-Ala-Lys(AMCA) uptake (0.5 mM) left with 50 mM competitor, E. coli cells, pH 6.5 in test [4] is under 10%.

Turning to Tyr-Lys (peptide), the IC50 of inhibition of β-Ala-Lys(AMCA) uptake into E. coli cells (0.2 mM substrate, 5 min, pH 6.5) with YjdL Tyr25Phe (E. coli) [5] was 0.67 mM; in [6], 0.55 mM; with YjdL-Ala281Phe (E. coli) [7] it was 0.03 mM.

By IC50 is commonly meant the concentration that gives 50% inhibition. Higher therefore signals weaker potency in that assay.
